± gives the standard error.
B1: library; numbered along this chain (parent)
chain: MATDAALRRLLRLHRTEIAVAVDSAFPLLHALADHDVVPEDKFQETLHLKEKEGCPQAFHALLSWLLTQDSTAILDFWRVLFKDYNLERYGRLQPILDSFPKDVDLSQPRKGRKPPAVPKALVPPPRLPTKRKASEEARAAAPAALTPRGTASPGSQLKAKPPKKPESSAEQQRLPLGNGIQTMSASVQRAVAMSSGDVPGARGAVEGILIQQVFESGGSKKCIQVGGEFYTPSKFEDSGSGKNKARSSSGPKPLVRAKGAQGAAPGGGEARLGQQGSVPAPLALPSDPQLHQKNEDECAVCRDGGELICCDGCPRAFHLACLSPPLREIPSGTWRCSSCLQATVQEVQPRAEEPRPQEPPVETPLPPGLRSAGEEVRGPPGEPLAGMDTTLVYKHLPAPPSAAPLPGLDSSALHPLLCVGPEGQQNLAPGARCGVCGDGTDVLRCTHCAAAFHWRCHFPAGTSRPGTGLRCRSCSGDVTPAPVEGVLAPSPARLAPGPAKDDTASHEPALHRDDLESLLSEHTFDGILQWAIQSMARPAAPFPS

Variants of: B1
Assay: AIRE transcriptional activation functional score (insulin promoter-GFP; nonsense median 0, synonymous median 1) (normalised score); higher = higher AIRE activity (more reporter activation)
Conditions: with insulin promoter-GFP reporter in HEK293
Outline: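 Using Bxb1 recombinase, codon-optimized NNN-codon libraries for three AIRE regions were inserted into Flp-In T-REx HEK293 landing-pad cells with an insulin core promoter-GFP reporter. After integrants (mCherry+, BFP−) were sorted at day 7 and expanded for 7 days, the top 10% GFP and unselected integrant populations underwent tile-sequencing. Functional scores are wild-type-subtracted enrichments of variants in select over non-select samples. A cutoff of 10 counts per million in non-select applied, and values were rescaled (nonsense median 0, synonymous median 1) and averaged over biological replicates.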

Row | Variant | AIRE transcriptional activation functional score
1 | L63I | 0.588 ± 0.7
2 | L63M | -0.458 ± 0.078
3 | L63Q | -0.326 ± 0.27
4 | L28Q | 0.552 ± 0.6
5 | L175Q | 1.1 ± 0.28
6 | L106W | 0.739 ± 0.14
7 | R356H | 0.935 ± 0.09
8 | E136V | 0.704 ± 0.44
9 | E136Q | 1.45 ± 0.34
10 | T68P | 0.108 ± 0.16
11 | L520H | 0.344 ± 0.097
12 | G260R | 1.04 ± 0.27
13 | R456Y | 1.51 ± 0.33
14 | R456W | -0.304 ± 0.33
15 | N244R | 0.573 ± 0.29
16 | G263Y | 1.34 ± 0.25
17 | G469R | 0.913 ± 0.23
18 | H14E | -1.27 ± 0.55
19 | A142T | 0.704 ± 0.47
20 | A142R | 0.685 ± 0.49
21 | D84V | -0.00793 ± 0.2
22 | A271M | 1.38 ± 0.051
23 | L122A | 0.747 ± 0.24
24 | D389C | 0.869 ± 0.051

Row | Variant | AIRE transcriptional activation functional score
25 | D389V | 0.292 ± 0.13
26 | D389E | 0.728 ± 0.51
27 | T130N | 0.915 ± 0.14
28 | P154A | 0.676 ± 0.42
29 | P154V | 0.461 ± 0.49
30 | A33W | 0.679 ± 0.29
31 | A33P | -0.0164 ± 0.67
32 | A33Y | 0.238 ± 0.87
33 | C55P | 0.602 ± 0.51
34 | N179I | 1.15 ± 0.12
35 | L519P | 0.517 ± 0.14
36 | L519H | -0.138 ± 0.072
37 | A343F | 1.38 ± 0.48
38 | S195G | 0.859 ± 0.19
39 | A496Q | 1.04 ± 0.065
40 | G408T | 0.879 ± 0.18
41 | P407E | 0.454 ± 0.22
42 | T151I | 1.3 ± 0.26
43 | T151L | 0.905 ± 0.44
44 | T151F | 1.76 ± 0.23
45 | A461F | 1.21 ± 0.17
46 | A461H | 1.23 ± 0.27
47 | S241G | 0.897 ± 0.38
48 | C299E | 0.32 ± 0.12

Row | Variant | AIRE transcriptional activation functional score
49 | C299H | 0.488 ± 0.068
50 | P460E | 1.16 ± 0.098
51 | P361T | 1.12 ± 0.13
52 | C437F | 0.199 ± 0.17
53 | C437A | 0.0947 ± 0.07
54 | G269C | 0.879 ± 0.44
55 | D526V | -0.011 ± 0.095
56 | P115L | 1.2 ± 0.48
57 | S107H | 1.33 ± 0.1
58 | Q213N | 0.805 ± 0.077
59 | V393D | 0.48 ± 0.17
60 | R127P | 0.804 ± 0.38
61 | L13V | 0.593 ± 0.48
62 | P350H | 1.47 ± 0.12
63 | E508S | 0.0376 ± 0.27
64 | E508I | 0.786 ± 0.28
65 | E508V | 0.577 ± 0.22
66 | D503E | 0.774 ± 0.081
67 | L273S | 0.975 ± 0.53
68 | E375K | 1.35 ± 0.14
69 | V436Q | 0.854 ± 0.3
70 | S169E | 0.245 ± 0.73
71 | S169N | 1.18 ± 0.7
72 | E270Q | 1.15 ± 0.33

Row | Variant | AIRE transcriptional activation functional score
73 | E270M | 1.2 ± 0.07
74 | K83I | 0.0909 ± 0.16
75 | K161S | 0.458 ± 0.68
76 | Q358M | 1.12 ± 0.088
77 | A482S | 1.34 ± 0.11
78 | V301N | 0.743 ± 0.3
79 | E216W | 0.395 ± 0.14
80 | A152I | 0.777 ± 0.33
81 | A152V | 1.17 ± 0.27
82 | P325V | 0.965 ± 0.077
83 | L341S | 0.767 ± 0.29
84 | F525C | 0.0978 ± 0.11
85 | A246H | 1.42 ± 0.31
86 | C337Y | 1.07 ± 0.12
87 | C337G | 1.5 ± 0.28
88 | K294Y | 0.634 ± 0.16
89 | R336H | 0.786 ± 0.042
90 | Q225G | 0.56 ± 0.37
91 | L29V | 0.342 ± 0.35
92 | L29S | -0.0413 ± 0.26
93 | T480Y | 0.806 ± 0.041
94 | G306R | 0.689 ± 0.18
95 | L428W | 1.31 ± 0.044
96 | R471Q | 0.5 ± 0.21

Row | Variant | AIRE transcriptional activation functional score
97 | A264L | 1.18 ± 0.35
98 | V123C | 1.27 ± 0.17
99 | P162Q | 1.54 ± 0.23
100 | P162T | 0.633 ± 0.6
101 | G440P | 1.25 ± 0.12
102 | A19H | 0.194 ± 0.27
103 | W78R | -0.0677 ± 0.38
104 | H35Y | 0.805 ± 0.27
105 | P499F | 1.11 ± 0.077
106 | G242F | 1.23 ± 0.046
107 | E354L | 1.05 ± 0.2
108 | R494K | 0.735 ± 0.1
109 | R494L | 0.489 ± 0.26
110 | V443Y | 0.882 ± 0.17
111 | V443K | 0.0676 ± 0.097
112 | R538A | 0.19 ± 0.045
113 | A61Y | -0.0286 ± 0.38
114 | G91T | 0.431 ± 0.56
115 | G91E | 1.71 ± 0.32
116 | V362W | 1.24 ± 0.036
117 | P266G | 0.877 ± 0.27
118 | L495T | 0.948 ± 0.16
119 | P542L | 1.07 ± 0.084
120 | P542I | 1.09 ± 0.22

Row | Variant | AIRE transcriptional activation functional score
121 | Y90L | 0.0613 ± 0.22
122 | P466W | 1.42 ± 0.038
123 | P466S | 1.08 ± 0.45
124 | I18C | -0.426 ± 0.095
125 | S474E | 1.16 ± 0.11
126 | S474F | 1.12 ± 0.067
127 | S474P | 1.17 ± 0.28
128 | S474Y | 0.736 ± 0.19
129 | G150R | 0.148 ± 0.46
130 | G150E | 0.763 ± 1.3
131 | Q293P | 0.602 ± 0.28
132 | Q293N | 0.746 ± 0.046
133 | S185P | 0.302 ± 0.12
134 | S185K | 1 ± 0.13
135 | S332R | 1.04 ± 0.24
136 | M536K | -0.0329 ± 0.17
137 | H523F | 0.43 ± 0.12
138 | T16F | -0.112 ± 0.16
139 | P109N | -1.94 ± 0.83
140 | G333T | 0.561 ± 0.19
141 | D105E | 0.837 ± 0.3
142 | I211S | 0.773 ± 0.41
143 | P381Q | 1.35 ± 0.12
144 | P176G | 0.765 ± 0.56

Row | Variant | AIRE transcriptional activation functional score
145 | L283M | 1.34 ± 0.034
146 | L283F | 1.17 ± 0.21
147 | A144N | 0.39 ± 0.33
148 | A144F | 1.26 ± 0.26
149 | R433S | 0.734 ± 0.31
150 | R433D | 0.895 ± 0.059
151 | S168M | 1.47 ± 0.27
152 | S168D | 0.307 ± 0.097
153 | S168F | 1.44 ± 0.11
154 | G197W | 0.323 ± 0.063
155 | G197T | 0.444 ± 0.2
156 | H458L | 0.474 ± 0.18
157 | P490N | 0.697 ± 0.4
158 | P490E | 0.916 ± 0.086
159 | P490T | 1.13 ± 0.13
160 | R139H | 0.679 ± 0.53
161 | Q425Y | 1.28 ± 0.075
162 | G369F | 1.46 ± 0.06
163 | G369D | -0.344 ± 0.25
164 | P497F | 1.03 ± 0.11
165 | G274C | 0.942 ± 0.21
166 | L327S | 1.14 ± 0.24
167 | C472K | 0.158 ± 0.12

From the supplement of paper PMC12667976
